# Test results: patent US20220064321A1 (published 2022)
# Assays:
# [1] = biological target: CD16a on effector cells NK92MI-CD16a (UniProt P08637 17-254, limits assumed); experiment: cell-based or functional assay
# [2] = biological target: T1, FcγRIIIa(V158) (Sino Biological Inc, 10389-H08C1) (UniProt P08637 17-208); experiment: binding ELISA; His-tagged FcγRIIIa captured by anti-His antibody, IgG pre-complexed with goat F(ab')2 anti-human-κ, HRP anti-human F(ab')2 detection
# T1 construct: also called Fc gamma receptor IIIa
# T1 sequence (P08637 17-208 F176V limits assumed): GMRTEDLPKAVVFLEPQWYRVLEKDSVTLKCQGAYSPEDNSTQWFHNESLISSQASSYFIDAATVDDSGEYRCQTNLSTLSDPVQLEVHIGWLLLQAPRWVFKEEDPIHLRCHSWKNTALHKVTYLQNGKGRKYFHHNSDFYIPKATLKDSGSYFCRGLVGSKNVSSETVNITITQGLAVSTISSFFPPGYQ
# Procedure: (§1) High protein binding Costar 96-well plates were coated with anti-His antibody (Genscript, A00186) (1 μg/ml, 100 μl/well) in a coating buffer (0.05 M sodium carbonate buffer, pH 9.6) overnight at 4° C. The wells were washed twice with PBS/0.05% Tween 20 (pH 7.4). The plates were blocked with 5% Non-Fat Milk Powder/PBS (pH 7.4) for 1.5 hours at 37′C. Plates were washed and FcγRIIIa (Sino Biological Inc, 10389-H08C1) (1 μg/ml, 100 μl/well) in PBS/0.05% Tween 20, pH 7.4 (assay buffer) was added to the plates. Antibodies were pre-incubated with goat F(ab′)₂anti-human-κ antibody (Sigma) at a 1:2 (w/w) ratio in assay buffer for 1 h to form complex to increase binding avidity. […] After a 2 h incubation, plates were washed and bound IgG was detected by adding horseradish peroxidase (HRP)) labeled goat F(ab′)2 anti-human IgG F(ab′)2 (Sigma). After a final 1 hour incubation, plates were washed and the substrate 3,3′,5,5′-tetramethyl benzidine (TMB) (InnoReagents) was added. The reaction was stopped by adding 1 M phosphoric acid, and the OD was measured at 450 nm using a microplate reader Spectra MAX I3 (Molecular Devices).
# [3] = biological target: T1, FcγRIIIa(V158) (Sino Biological Inc, …); experiment: binding ELISA; His-tagged FcγRIIIa captured by anti-His antibody, IgG pre-complexed with goat F(ab')2 anti-human-κ (value in the text differs from Table 4)
# Procedure: as §1
# Chain of CD16a on effector cells NK92MI-CD16a (P08637 17-254 limits assumed): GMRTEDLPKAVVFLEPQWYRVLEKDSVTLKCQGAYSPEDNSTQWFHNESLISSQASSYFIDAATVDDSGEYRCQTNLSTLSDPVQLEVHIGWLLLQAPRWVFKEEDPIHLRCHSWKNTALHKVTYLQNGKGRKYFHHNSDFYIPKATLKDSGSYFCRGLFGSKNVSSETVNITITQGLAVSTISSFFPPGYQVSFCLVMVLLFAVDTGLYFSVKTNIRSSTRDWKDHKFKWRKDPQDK
"ADCC Target cell: Daudi, EC50 [1] [ng/mL]","ADCC Target cell: Raji, EC50 [1] [ng/mL]",EC50 [2] [ng/mL],EC50 [3] [ng/mL],Binder
0.0488,0.00738,52,55,"anti-CD20 antibody MIL62 (antibody, human IgG1, kappa, N-glycans on the Fc region, not bisected by N-acetylglucosamine; core-fucosylated glycans 0.43% in the example batch (made in CHOK1-AF cells, Slc35c1 knocked out), In the FcγRIIIa ELISA the IgG was pre-complexed with goat F(ab')2 anti-human-κ antibody at 1:2 (w/w); also called MIL62 antibody; humanized anti-CD20 antibody of the present invention) light: DIVMTQTPLSLPVTPGEPASISCRSSKSLLHSNGITYLYWYLQKPGQSPQLLIYQMSNLVSGVPDRFSGSGSGTDFTLKISRVEAEDVGVYYCAQNLELPYTFGGGTKVEIKRTVAAPSVFIFPPSDEQLKSGTASVVCLLNNFYPREAKVQWKVDNALQSGNSQESVTEQDSKDSTYSLSSTLTLSKADYEKHKVYACEVTHQGLSSPVTKSFNRGEC heavy: not shown"
0.111,0.0143,113,,"GAZYVA® (obinutuzumab) (antibody, human IgG1, kappa, N-glycans on the Fc region, more than 76% bisected by GlcNAc; core-fucosylated glycans 48.03% in the example batch, In the FcγRIIIa ELISA the IgG was pre-complexed with goat F(ab')2 anti-human-κ antibody; also called afutuzumab; GA101) light: DIVMTQTPLSLPVTPGEPASISCRSSKSLLHSNGITYLYWYLQKPGQSPQLLIYQMSNLVSGVPDRFSGSGSGTDFTLKISRVEAEDVGVYYCAQNLELPYTFGGGTKVEIKRTVAAPSVFIFPPSDEQLKSGTASVVCLLNNFYPREAKVQWKVDNALQSGNSQESVTEQDSKDSTYSLSSTLTLSKADYEKHKVYACEVTHQGLSSPVTKSFNRGEC heavy: not shown"
